A word on the stoichiometry N: it is the number of molecules, sites or subunits per partner or assembly.

The results in this text go back to paper PMC4154131, “Molecular pathogenesis of Spondylocheirodysplastic Ehlers-Danlos syndrome caused by mutant ZIP13 proteins” (EMBO Molecular Medicine, 2014).

Data set [1] addresses N-terminally 3xFLAG-tagged G64D mutant ZIP13 (human). In words: native gel or EMSA; blue native-PAGE of lysates of 293T cells expressing F-WT or F-G64D. (In general: Mobility shift assays separate free from complexed probe on a gel.)
Data set [2] concerns the molecule itself. Described as above.

“N-terminally 3xFLAG-tagged G64D mutant ZIP13 (natural protein)”: the stoichiometry N in data set [1] turned out to be 2.

B1: N-terminally 3xFLAG-tagged wild-type ZIP13 (natural protein, human, UniProt Q96H72 1-371, looked up)
chain: MPGCPCPGCGMAGPRLLFLTALALELLERAGGSQPALRSRGTATACRLDNKESESWGALLSGERLDTWICSLLGSLMVGLSGVFPLLVIPLEMGTMLRSEAGAWRLKQLLSFALGGLLGNVFLHLLPEAWAYTCSASPGGEGQSLQQQQQLGLWVIAGILTFLALEKMFLDSKEEGTSQAPNKDPTAAAAALNGGHCLAQPAAEPGLGAVVRSIKVSGYLNLLANTIDNFTHGLAVAASFLVSKKIGLLTTMAILLHEIPHEVGDFAILLRAGFDRWSAAKLQLSTALGGLLGAGFAICTQSPKGVVGCSPAAEETAAWVLPFTSGGFLYIALVNVLPDLLEEEDPWRSLQQLLLLCAGIVVMVLFSLFVD
notes: ZIP13 (SLC39A13) zinc transporter, human, wild type; construct as previously described (Fukada et al, 2008); The 3xFLAG precedes the signal peptide; also called F-WT; F-ZIP13; source: 293T, transfected, in lysate; not shown: 3xFLAG, N-terminal, kept
As to B1, in data set [2], the “stoichiometry N” value was determined as 2.
